Test results from patent US20230025129A1 (KYMAB, published 2023).
Numbering of substitutions follows the chain as printed. Names may count otherwise. Like-named read-outs stand apart in the source and are kept apart here. Values belong to the binder of their own block, whether it stands above or below them.

Columns and labels:
[1] = target: T1, human matriptase-2 ECD protein his tag (human, UniProt Q8IU80 78-811); experiment: cell-based or functional assay
T1 sequence: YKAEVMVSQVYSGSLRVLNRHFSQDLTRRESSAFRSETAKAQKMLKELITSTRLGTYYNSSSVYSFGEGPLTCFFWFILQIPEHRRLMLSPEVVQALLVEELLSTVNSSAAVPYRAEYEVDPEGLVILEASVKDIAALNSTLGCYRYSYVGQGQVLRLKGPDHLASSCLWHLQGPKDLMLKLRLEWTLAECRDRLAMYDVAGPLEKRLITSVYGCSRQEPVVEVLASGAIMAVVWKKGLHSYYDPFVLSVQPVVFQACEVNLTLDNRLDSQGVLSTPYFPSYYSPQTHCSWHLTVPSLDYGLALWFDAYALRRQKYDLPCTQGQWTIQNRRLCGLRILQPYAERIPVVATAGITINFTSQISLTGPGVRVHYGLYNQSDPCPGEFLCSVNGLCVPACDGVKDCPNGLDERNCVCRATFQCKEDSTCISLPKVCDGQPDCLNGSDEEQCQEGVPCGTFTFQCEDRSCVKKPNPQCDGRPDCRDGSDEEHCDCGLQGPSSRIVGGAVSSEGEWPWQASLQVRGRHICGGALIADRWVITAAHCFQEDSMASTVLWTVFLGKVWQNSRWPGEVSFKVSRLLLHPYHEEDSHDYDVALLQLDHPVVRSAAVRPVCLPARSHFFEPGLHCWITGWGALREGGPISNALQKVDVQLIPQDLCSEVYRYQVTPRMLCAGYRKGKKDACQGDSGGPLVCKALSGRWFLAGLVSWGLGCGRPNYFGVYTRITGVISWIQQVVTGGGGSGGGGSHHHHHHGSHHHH

[2] = target: T2, mouse matriptase-2 ECD protein his tag (mouse, UniProt Q9DBI0 80-811); experiment: cell-based or functional assay
T2 sequence: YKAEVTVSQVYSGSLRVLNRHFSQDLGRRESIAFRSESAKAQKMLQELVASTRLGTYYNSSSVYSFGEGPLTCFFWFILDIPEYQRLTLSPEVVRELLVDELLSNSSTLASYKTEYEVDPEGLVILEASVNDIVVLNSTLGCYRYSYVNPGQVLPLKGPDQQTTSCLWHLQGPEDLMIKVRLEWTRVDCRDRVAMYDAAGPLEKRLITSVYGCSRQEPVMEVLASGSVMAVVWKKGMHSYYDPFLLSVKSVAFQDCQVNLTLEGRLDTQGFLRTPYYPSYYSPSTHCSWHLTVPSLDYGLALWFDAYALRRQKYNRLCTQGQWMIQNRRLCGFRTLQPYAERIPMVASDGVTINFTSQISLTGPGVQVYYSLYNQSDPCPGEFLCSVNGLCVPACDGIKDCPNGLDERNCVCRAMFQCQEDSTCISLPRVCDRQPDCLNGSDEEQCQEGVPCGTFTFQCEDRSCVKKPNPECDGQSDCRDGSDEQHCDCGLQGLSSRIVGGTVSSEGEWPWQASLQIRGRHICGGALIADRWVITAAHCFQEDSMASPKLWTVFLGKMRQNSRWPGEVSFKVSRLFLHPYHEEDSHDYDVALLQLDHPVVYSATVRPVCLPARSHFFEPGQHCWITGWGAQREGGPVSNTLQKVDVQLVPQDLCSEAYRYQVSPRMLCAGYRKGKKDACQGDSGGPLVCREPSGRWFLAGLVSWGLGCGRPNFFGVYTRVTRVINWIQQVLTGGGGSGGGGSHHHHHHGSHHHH

[3] = target: T1, human matriptase-2 ECD protein his tag; experiment: cell-based or functional assay; remark: listed apart in the source
[4] = target: T2, mouse matriptase-2 ECD protein his tag; experiment: cell-based or functional assay; remark: listed apart in the source
[5] = target: T1, human matriptase-2 ECD protein his tag; experiment: HTRF competition with 647-labelled aprotinin for human MTP-2 protein
Text: Aprotinin is a pan serine protease inhibitor and is known to occupy the active site of serine proteases. A HTRF competition assay against labelled aprotinin confirmed that NORI-003, NORI-006, NORI-008 and NORI-011 were binding at or near this same site and competed with aprotinin for binding to human MTP-2 protein. […] This was confirmed by their lack of competition of aprotinin against moMTP-2 while IC50 values in the enzymatic assay were similar to those of NORI-011. […] FIG. 8. Table L.
Antibodies were titrated into HTRF buffer (DPBS (Gibco—14190144) with 0.1% BSA (Sigma—A7906) and potassium fluoride 0.53M (Sigma—60240-250 G)) at 4× conc with a starting concentration of 200 nM. 5 μL/w of antibodies were added to 384-well white plates (Greiner—784904). Purified proteins of huMTP-2 and moMTP-2 were diluted into HTRF buffer (huMTP-2=40 nM and moMTP-2=240 nM) 4× final conc and plate 5 μL/w. Anti-MTP-2 mAb (NORI-037) in molgG1 backbone was then diluted to 1.2 nM 4× final conc with DELFIA Eu-N1 Rabbit Anti-Mouse-IgG antibody (AD0207) at a 1:1000 dilution 4× final conc in HTRF buffer. Finally, dilute 647-labelled Aprotinin (Sigma—A3428) in HTRF buffer to 20 nM 4× final conc and plate 5 μL/w. Incubate plates for 3 hours or more at RT in the dark. Read plate using HTRF 100 flashes protocol on the EnVision plate reader at 1H 2H and 3H. (Ex: 340 nm Em1: 620 nm Em2: 665 nm).

B1: NORI-013 (antibody, human IgG4 S228P, lambda, V domains shown)
VH: EVQLVESGGGLIQAGRSLRLSCAASGFTFDEHVIYWVRQIPGKGLEWISSISWKSDIIAYADSVKGRFTISRDNAKNALYLQMNSLRAEDTALYYCAREKDGDFYYYYFAMDVWGQGTTVTVSS
VL: QSALTQPPSASGSPGQSVTLSCTGTSSDVGYYNYVSWYLQHPGKAPKLMIYEVSKRPSGVPDRFSGSKSANTASLTVSGLQAEDEADYYCSSYAGSNKVVFGGGTKVTVLG
notes: human IgG4PE, lambda
Inhibition enzymatic activity human MTP2 protein (IC50) [1]: 5.63 nM | Inhibition enzymatic activity mouse MTP2 protein (IC50) [2]: 3.59 nM

B2: NORI-014 (antibody, human IgG4 S228P, lambda, V domains shown)
VH: B1 VH with I34M, S52T
VL: B1 VL
notes: human IgG4PE, lambda
Inhibition enzymatic activity human MTP2 protein (IC50) [1]: 11.8 nM | Inhibition enzymatic activity mouse MTP2 protein (IC50) [2]: 8.5 nM

B4: NORI-008 (antibody, human IgG4 S228P, kappa, V domains shown)
VH: QVQLQESGPGLVKPSETLSLTCSVSGGSVSSGRYYWTWIRQPPGKGLEWIGYISNSGNTNYNPSLKSRVTISLDTSKKQFSLSLSAVTAADTAVYYCARGFIYDYWFDPWGQGSLVTVSS
VL: DSQMTQSPSSLSASVGDRVTITCQASQDIDNYLNWYQQRPGKAPKLLIYDASKLETGVPSRFSGSGSGTDFTFTISSLQPEDFATYYCQQYGNLPITFGQGTRLDIKR
notes: human IgG4PE, kappa, in the in vitro assays; a mouse IgG1 format was used in one in vivo study only; also called NORI-008 hulgG4PE; NORI-008 IgG
Inhibition enzymatic activity human MTP2 protein (IC50) [3]: 0.446 nM | Inhibition enzymatic activity mouse MTP2 protein (IC50) [4]: 0.757 nM | Inhibition enzymatic activity human MTP2 protein (IC50) [1]: 8.28 nM | Inhibition enzymatic activity mouse MTP2 protein (IC50) [2]: 1.5 nM | IC50 [5]: 0.256 nM

B5: NORI-006 (antibody, human IgG4 S228P, kappa, V domains shown)
VH: EVQLVESGGGLIKPGRSLRLSCTGSGFTFGDFGLSWFRQAPGKGLEWISFIRSKPYGGTTDYAASVKGRFTISRDDSKNVAYLQMNSLKTEDTAVYYCARNEILTGYYIFDYWGQGTLVTVSS
VL: DIQMTQSPSSLSASLGDRVTITCQASQDINNYLNWYQVQPGKAPKLLIFDASILETGVPSRFSGSGSGTDFSFTISSLQPEDIATYYCQQYDNLPLTFGGGTKVDFKR
notes: human IgG4PE, kappa
Inhibition enzymatic activity human MTP2 protein (IC50) [3]: 1.26 nM | Inhibition enzymatic activity mouse MTP2 protein (IC50) [4]: 27.6 nM | Inhibition enzymatic activity human MTP2 protein (IC50) [1]: 8.8 nM | Inhibition enzymatic activity mouse MTP2 protein (IC50) [2]: 22.9 nM | IC50 [5]: 13.9 nM

Other lines, results leading:

Inhibition enzymatic activity human MTP2 protein (IC50) [3]: 11.4 nM | Inhibition enzymatic activity mouse MTP2 protein (IC50) [4]: 9.88 nM | IC50 [5]: 17 nM
B3: NORI-011 (antibody, human IgG4 S228P, lambda)
heavy: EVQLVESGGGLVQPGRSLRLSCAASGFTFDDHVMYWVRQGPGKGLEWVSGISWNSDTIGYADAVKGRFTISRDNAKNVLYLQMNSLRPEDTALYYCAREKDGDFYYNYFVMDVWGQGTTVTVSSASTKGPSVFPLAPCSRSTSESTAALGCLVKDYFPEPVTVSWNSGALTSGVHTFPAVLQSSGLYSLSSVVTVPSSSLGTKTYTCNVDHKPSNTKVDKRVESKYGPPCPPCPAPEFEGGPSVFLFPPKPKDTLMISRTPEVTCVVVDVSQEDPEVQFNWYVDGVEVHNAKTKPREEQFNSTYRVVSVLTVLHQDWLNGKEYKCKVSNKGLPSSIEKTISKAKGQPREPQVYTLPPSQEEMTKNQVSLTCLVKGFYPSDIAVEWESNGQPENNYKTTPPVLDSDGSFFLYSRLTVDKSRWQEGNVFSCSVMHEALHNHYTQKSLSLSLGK
light: QSALTQPPSASGSPGQSVTISCTGTSSDVGFYNFVSWYQQHPDKAPKVMIYEVSKRPSGVPDRFSGSKSGNTASLTVSGLQAEDEADYYCSSYAGSNKVVFGGGTKLTVLGQPKAAPSVTLFPPSSEELQANKATLVCLISDFYPGAVTVAWKADSSPVKAGVETTTPSKQSNNKYAASSYLSLTPEQWKSHRSYSCQVTHEGSTVEKTVAPTECS
notes: human IgG4PE, lambda; NORI-010 with a P124S mutation in the VH domain

Inhibition enzymatic activity human MTP2 protein (IC50) [3]: 1.6 nM | Inhibition enzymatic activity mouse MTP2 protein (IC50) [4]: 19 nM | IC50 [5]: 7.28 nM
B6: NORI-003 (antibody, human IgG4 S228P, kappa, V domains shown)
VH: EVQLVESGGGLVKPGRSLRLSCTGSGFTFGDFGMSWFRQAPGKGLEWVGFIRSKPYGGTTDYAPSVRGRFSISRDDSKGIVYLQMNSLRTEDTAVYYCSRNEILTGYYIFDYWGQGTLVTVSS
VL: B5 VL with Q27H, N30T, N34I, V38Q, Q39K, K45R, S72T, I83F, D92Y, F106I
notes: human IgG4PE, kappa; NORI-002 with the free cysteine of the VH domain mutated (printed as 'C49C')
